# Results as given in the Immune Epitope Database (IEDB).
# pKd: −log10 of the molar value.
# Columns and labels:
# Experiment in all cases: IEDB peptide-MHC binding, purified MHC/competitive/radioactivity; filed as Kd, often an IC50 or EC50 that approximates it; ≥ and ≤ were set here for values at or beyond the usual limits of such assays
# HLA-A*33:01 = target: HLA-A*33:01
# HLA-A*11:01 = target: HLA-A*11:01
# HLA-A*03:01 = target: HLA-A*03:01
# HLA-A*31:01 = target: HLA-A*31:01
# HLA-A*68:01 = target: HLA-A*68:01
# [1] = source organism: Vaccinia virus WR
# [2] = source organism: Dengue virus 2 Jamaica/1409/1983
# [3] = source organism: SARS coronavirus Tor2
# [4] = source organism: Dengue virus 4 Philippines/H241/1956
# [5] = source organism: Dengue virus 3 Martinique/1243/1999
# [6] = source organism: Mammarenavirus brazilense
# [7] = source organism: Lymphocytic choriomeningitis virus (strain Traub)
Sequence,pKd (HLA-A*33:01; [1]),pKd (HLA-A*11:01; [1]),pKd (HLA-A*03:01; [1]),pKd (HLA-A*31:01; [1]),pKd (HLA-A*68:01; [1]),also measured
AALDGTFQRK,≤ 4.15,8.09,7.31,5.37,5.08,–
AIFTYTGGY,≤ 4.11,6.55,6.54,5.15,5.08,–
AISSRVDRY,≤ 4.11,6.79,5.30,4.73,5.32,–
AMAFHLTTR,–,–,–,–,–,pKd (HLA-A*03:01; [2]): 7.25; pKd (HLA-A*31:01; [2]): 8.80
ATAHSELAK,–,–,–,–,–,pKd (HLA-A*33:01; [3]): ≤ 4.11; pKd (HLA-A*11:01; [3]): 8.27; pKd (HLA-A*03:01; [3]): 7.94; pKd (HLA-A*31:01; [3]): 4.73; pKd (HLA-A*68:01; [3]): 7.72
DLIAMENLK,6.23,5.87,≤ 4.47,4.71,7.79,–
DLLNSMMNR,8.39,4.83,5.66,7.37,7.44,–
DSMDVLAEKK,5.45,6.12,6.46,6.00,8.77,–
EGVYRIMQR,–,–,–,–,–,pKd (HLA-A*68:01; [4]): 6.67
ETAKVIKLVK,≤ 4.15,6.72,5.79,5.03,7.67,–
ETNMITLLVK,–,–,–,–,–,pKd (HLA-A*11:01; [4]): 5.97
FLIGANYLGK,–,–,–,–,–,pKd (HLA-A*33:01; [3]): ≤ 4.47; pKd (HLA-A*11:01; [3]): 6.27; pKd (HLA-A*03:01; [3]): 6.67; pKd (HLA-A*31:01; [3]): 5.43; pKd (HLA-A*68:01; [3]): 7.29
FLLFLEITY,5.14,4.80,4.98,6.80,5.72,–
FMDEIDHESY,≤ 4.36,≤ 4.44,4.80,≤ 4.66,≤ 4.23,–
FTLNHVLALK,5.77,8.10,7.97,6.87,8.34,–
GALHLYFDK,–,–,–,–,–,pKd (HLA-A*33:01; [3]): 4.81; pKd (HLA-A*11:01; [3]): 9.03; pKd (HLA-A*03:01; [3]): 6.31; pKd (HLA-A*31:01; [3]): 6.84; pKd (HLA-A*68:01; [3]): 5.30
GLSLQDYCY,5.06,6.44,5.51,≤ 4.42,≤ 4.53,–
GLTSRATWAK,–,–,–,–,–,pKd (HLA-A*03:01; [2]): 7.28
GTDDEVIER,5.93,6.43,≤ 4.20,5.65,6.20,–
GTLGLECSPR,–,–,–,–,–,pKd (HLA-A*33:01; [5]): 7.63; pKd (HLA-A*68:01; [5]): 6.97

Sequence,pKd (HLA-A*33:01; [1]),pKd (HLA-A*11:01; [1]),pKd (HLA-A*03:01; [1]),pKd (HLA-A*31:01; [1]),pKd (HLA-A*68:01; [1]),also measured
GVRFFFYTSK,–,–,–,–,–,pKd (HLA-A*33:01; [3]): 4.96; pKd (HLA-A*11:01; [3]): 7.35; pKd (HLA-A*03:01; [3]): 7.05; pKd (HLA-A*31:01; [3]): 6.31; pKd (HLA-A*68:01; [3]): 6.92
HIKVDHPDK,6.53,5.25,5.29,6.80,5.71,–
IAQYKCVTIK,≤ 4.62,6.11,7.54,5.23,5.23,–
ILSDENYLLK,4.84,7.54,7.24,4.77,5.60,–
ISNITTATR,–,–,–,–,–,pKd (HLA-A*31:01; [4]): 7.14
ISYCRAFIY,5.45,9.45,8.84,6.63,8.87,–
IVNEHDIKY,≤ 4.25,7.07,8.95,≤ 4.40,5.35,–
IVQLPKRGVR,4.90,≤ 4.59,4.80,5.91,4.72,–
IVSSVNMISR,–,–,–,–,–,pKd (HLA-A*33:01; [2]): 7.05; pKd (HLA-A*68:01; [2]): 7.79
KAKWLTPFEK,≤ 4.15,6.60,6.67,6.94,4.93,–
KASTISWMMK,≤ 4.30,8.26,7.35,7.06,6.87,–
KCFEKFLEPK,–,–,–,–,–,pKd (HLA-A*33:01; [6]): ≤ 4.64; pKd (HLA-A*11:01; [6]): 4.77; pKd (HLA-A*03:01; [6]): 5.90; pKd (HLA-A*31:01; [6]): 5.99; pKd (HLA-A*68:01; [6]): 5.46
KCHDHYLCRH,–,–,–,–,–,pKd (HLA-A*33:01; [7]): ≤ 4.15; pKd (HLA-A*11:01; [7]): ≤ 4.16; pKd (HLA-A*03:01; [7]): ≤ 4.61; pKd (HLA-A*31:01; [7]): 5.02; pKd (HLA-A*68:01; [7]): ≤ 4.15
KIIHEWCCR,–,–,–,–,–,pKd (HLA-A*31:01; source organism: Dengue virus 1 Brazil/97-11/1997): ≤ 4.23
KSGGLSSGFY,≤ 4.15,5.28,5.59,≤ 4.15,≤ 4.15,–
KSLVSAGSGK,–,–,–,–,–,pKd (HLA-A*03:01; [5]): 8.47
KSTELIRRVR,5.71,≤ 4.69,≤ 4.15,7.82,6.05,–
LIVSLCPTK,5.84,6.97,5.08,4.85,7.12,–
LLLFADINGK,–,–,–,–,–,pKd (HLA-A*33:01; [3]): 4.76; pKd (HLA-A*11:01; [3]): 6.29; pKd (HLA-A*03:01; [3]): 6.87; pKd (HLA-A*31:01; [3]): ≤ 4.62; pKd (HLA-A*68:01; [3]): 5.04
